Reference: article PMC2845155

Tested on: CC(=O)N[C@H]1[C@@H]2OC[C@@H](O2)[C@@H](O)[C@@H]1O[C@H](C)C(=O)N[C@@H](C)C(=O)N[C@H](CCC(=O)N[C@@H](CCC[C@@H](N)C(=O)O)C(=O)O)C(=O)O
Experiment: LC/MS of substrate consumption or product formation, nonlinear regression
Type: biochemical, Citrobacter freundii
Details: pH 7.0, hydrolysis at lactyl amide bond

AmpD (Citrobacter freundii)
Km: 360 ± 10 µM
kcat: 25 ± 2 s⁻¹
kcat/Km: 69000 ± 4000 M⁻¹ s⁻¹
